Data on 24 sequences can be found in the supplement of paper PMC9170038.

The subject of the series is MS2 coat protein. Nature of the series: apparent KD of MS2 coat protein; designed switch direction (-1 OFF switch, 1 ON switch): -1; higher = weaker reporter binding. The essentials: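 The apparent KD reported per design is the median over clusters of curve fits to normalised cluster fluorescence. The RNA switches were transcribed on Illumina chips by stalled E. coli RNA polymerase. SNAP-549-labelled MS2 coat protein was titrated from 0.7 or 1.5 nM, doubling up to 3 µM, in Tris-HCl pH 7.5 buffer containing KCl, MgCl2, BSA, DTT, tRNA and Tween-20, with no input, 200 uM small-molecule ligand, or an oligonucleotide input.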

[1] abbreviates: Eterna round: R95, input ligand: FMN 200 uM.
[2] abbreviates: Eterna round: R95, input ligand: microRNA oligo, concentration not stated.
[3] abbreviates: Eterna round: R95, input ligand: none.
Setting [4] is: input ligand: microRNA oligo, concentration not stated.

As to “GACUGUCGAGAGGAUAUCUUUCCCAAGCGGGUCAGAGAAGGCUUGACAUGAGGAUCACCCAUGUUGAUUGCUAG [EX6 C.23] (Eterna round: R97, puzzle: Exclusion 6)”, the “apparent KD of MS2 coat protein” value came out at 389 nM (input ligand: FMN 200 uM) and 140 nM (input ligand: none).

Consider “GAGAAAUUAUAGGAUAUCGUAUGGAUAAUUUAACGAGAAGGAUGAACAUGAGGAUCACCCAUGUGGUAUCAUGG [JL-ex6-3.13] (puzzle: Exclusion 6)”, for which the “apparent KD of MS2 coat protein” value is 262 nM under setting [1], 327 nM under setting [2] and 331 nM under setting [3].

Turning to “GAGAAUUUAUAGGAUAUCGUAUGCAUAAUUUAACGAGAAGGAUGAACAUGAGGAUCACCCAUGUGGUAUCAUGG [salish99_ex6_r3_001] (puzzle: Exclusion 6)”, the “apparent KD of MS2 coat protein” value runs as follows: under setting [1], 88.9 nM; under setting [2], 192 nM; under setting [3], 122 nM.

In the case of “GAGCAGCCGAUAGGAUAUUCCGAGCUAAAGAGCAGUAGGACAUGAGGAUCACCCAUGUGUGCAUGGAAGAAGGGUCACUUCCAG [Eternabot solution 23] (Eterna round: R96, puzzle: Exclusion NG 2)”, the “apparent KD of MS2 coat protein” value runs as follows: (input ligand: FMN 200 uM) 25.8 nM; under setting [4], 24.2 nM; (input ligand: none) 30.7 nM.

Turning to “GAGGAGCAAGGAUAUACGAGGAGAGGGAAGAGAGGAGAGAGACAUGAGGAUCACCCAUGUAGAAGGUGCAAGGA [JR_Exclu2_Sub092] (puzzle: Exclusion 2)”, the “apparent KD of MS2 coat protein” value reads like this: under setting [1], 46 nM; under setting [2], 35.4 nM; under setting [3], 43.8 nM.

Regarding “GAGGGAGGAGGAUAUUCCUUCGAGAACAUGAGGAUCACCCAUGUGUUAUAUCGAAAGCCCGAAGAAGGCCUCGCUA [Eternabot (Original) Solution 50] (Eterna round: R97, puzzle: Exclusion 5)”, the “apparent KD of MS2 coat protein” value runs as follows: (input ligand: FMN 200 uM) 17.5 nM; (input ligand: none) 20.2 nM.

Consider “GAGGUGUUAGGAUAUCGGAGAUGGAGAAGAACGGGAAGAGGCGAGAAGGAACAUGAGGAUCACCCAUGUAGGUG [JR_Exclu4_Sub029] (puzzle: Exclusion 4)”, for which, under setting [2], the “apparent KD of MS2 coat protein” value stood at 357 nM.

As for “GAGUAGGUAGGAUAUACGAUAAUAUAGGGUAGAUAUAUAACACAUGAGGAUCACCCAUGUAGAAGGACCAUGAG [Mat - Exclusion 2 - Mod of my Tesla design - D62] (puzzle: Exclusion 2)”, the “apparent KD of MS2 coat protein” value by setting is: under setting [1], 118 nM; under setting [2], 37.1 nM; under setting [3], 35.1 nM.

Regarding “GAGUGCUGAGGAUAUACAUGAGGAUCACCCAUGUACUUCAGCUAGGAGACUAGCAUUGGUAGAAGGCAGUACUC [Mod of lroppy 22 - Jieux - Exclusion 3] (Eterna round: R97, puzzle: Exclusion 3)”, the “apparent KD of MS2 coat protein” value was 20.7 nM (input ligand: FMN 200 uM) and 14.2 nM (input ligand: none).

Turning to “GAUAAGGUAGGAUAUACGAAUAAAUAGGGUAGAAUAAUAACACAUGAGGAUCACCCAUGUAGAAGGACCAAUAG [Mat - Exclusion 2 - Mod of my Tesla design - D26] (puzzle: Exclusion 2)”, the “apparent KD of MS2 coat protein” value amounted to 38.9 nM under setting [1], 25.6 nM under setting [2] and 26.3 nM under setting [3].

For the sequence “GAUAAUGAAGGAUAUACAGGCGGUCCGUGACUAGUCUUCAUACAUGAGGAUCACCCAUGUAGAAGGUCAAUGUU [Eternabot (L1) Solution 64] (Eterna round: R97, puzzle: Exclusion 2)”, the “apparent KD of MS2 coat protein” value is, setting by setting: (input ligand: FMN 200 uM) 23.3 nM; (input ligand: none) 14.4 nM.

On to “GAUACACAUGAGGAUCACCCAUGUGAGGAUAUGCGUACGUUGUCCGUAGGCGACGUGCGCAGAAGGCGCGAGGU [Mat - Mod of JL D92] (puzzle: Exclusion 1)”, for which the “apparent KD of MS2 coat protein” value under setting [2] came out at 31.8 nM.

Take “GAUAGAGCAGGAUAUCGAGAUCCGCACAUGAGGAUCACCCAUGUUCGGUCGAAAGACCGACGAGAAGGGCUGUAUC [Omei Ex5 E7] (Eterna round: R97, puzzle: Exclusion 5)”: the “apparent KD of MS2 coat protein” value (input ligand: FMN 200 uM) is 838 nM and the “apparent KD of MS2 coat protein” value (input ligand: none) turned out to be 4190 nM.

On to “GAUCAACAUGAGGAUCACCCAUGUCAGGAUAUGAUACUAUGUACUUCGGUACAUAGUAUCAGAAGGGACAGAUC [Ex1-3: 1] (puzzle: Exclusion 1)”, for which, under setting [2], the “apparent KD of MS2 coat protein” value amounted to 101 nM.

In the case of “GAUCGACAUGAGGAUCACCCAUGUCAGGAUAUCGUCACUGGAGCUUCGGCUCCAGUGACGAGAAGGGAUAUAAU [E1/16-A1] (Eterna round: R97, puzzle: Exclusion 1)”, the “apparent KD of MS2 coat protein” value was 26.3 nM (input ligand: FMN 200 uM) and 36.1 nM (input ligand: none).

As for “GAUGAGAGAGGAUAUACAUGAGGAUCACCCAUGUAAUUUUCGGACAUGGAAGCUGGAUGUAGAAGGCUCGCAUG [Leritete] (puzzle: Exclusion 3)”, the “apparent KD of MS2 coat protein” value under setting [2] was 19.6 nM.

“GAUGCCAGAGGAUAUGCAUCGGGUUCCUGGUUAAGGCUGCCACAUGAGGAUCACCCAUGUAGAAGGCUGCCGUC [EX2 B.5] (Eterna round: R97, puzzle: Exclusion 2)”: the “apparent KD of MS2 coat protein” value (input ligand: FMN 200 uM) turned out to be 17.4 nM and the “apparent KD of MS2 coat protein” value (input ligand: none) turned out to be 9.94 nM.

In the case of “GAUGGACAUGAGGAUCACCCAUGUAAGGAUAUACGGUUGGUAGAGAGAGAGAGGAAUGGUAGAAGGUACGGAGG [JR_Exclu1_Sub052] (puzzle: Exclusion 1)”, the “apparent KD of MS2 coat protein” value is, setting by setting: under setting [1], 38.7 nM; under setting [2], 43.1 nM; under setting [3], 55.9 nM.

For the sequence “GAUGUCCAGCGAGGAUAUCUGGUAAAUAAAAUGAGAGAAGGCGCGAAGACAUGAGGAUCACCCAUGUUGUCGCAUGGGAGCCUG [Enqurete] (Eterna round: R96, puzzle: Exclusion NG 1)”, the “apparent KD of MS2 coat protein” value (input ligand: FMN 200 uM) came to 116 nM, the “apparent KD of MS2 coat protein” value under setting [4] was 22.9 nM and the “apparent KD of MS2 coat protein” value (input ligand: none) came out at 29.1 nM.

For “GAUGUGGGUUUUCAGAGUAACAUGAGGAUCACCCAUGUAGAAGUUGAAGGUAUCAAGCGAAUGGCUCGUCAUAUGUG [JR_SV3TOV1_Sub050] (puzzle: Sensor v3, turn-off variant 1)”, the “apparent KD of MS2 coat protein” value worked out at 161 nM under setting [1], 239 nM under setting [2] and 322 nM under setting [3].

“GAUUAACAUGAGGAUCACCCAUGUGAGGAUAUUGACUUGCUCACUUUCCGAUUCGAGUCGAGAAGGCGCAUCUU [1986#117] (Eterna round: R97, puzzle: Exclusion 1)”: the “apparent KD of MS2 coat protein” value (input ligand: FMN 200 uM) was determined as 23.9 nM and the “apparent KD of MS2 coat protein” value (input ligand: none) worked out at 21.9 nM.

Regarding “GAUUAAUGCAAGGAUAUGCUAUUAAUUUAUUUUGCAGAAGGUGCAACAUGAGGAUCACCCAUGUUGGAGGGUAU [JR_E6_Sub027] (Eterna round: R96, puzzle: Exclusion 6)”, the “apparent KD of MS2 coat protein” value runs as follows: (input ligand: FMN 200 uM) 34.9 nM; under setting [4], 17.8 nM; (input ligand: none) 25.1 nM.

On to “GAUUAAUGCAAGGAUAUGCUAUUAAUUUAUUUUGCAGAAGGUGCAACAUGAGGAUCACCCAUGUUGGAGGGUAU [JR_E6_Sub027] (puzzle: Exclusion 6)”, for which, under setting [2], the “apparent KD of MS2 coat protein” value was determined as 18.8 nM.

For “GAUUAUGCAAGCUUUUGGGACAUGAGGAUCACCCAUGUUCGUCUUAUUGAUCUAGGUACGCUGACGUACCUAGAUCU [JL-sv1-2.32 Brourd mod] (Eterna round: R96, puzzle: Sensor v3, turn-off variant 1)”, the “apparent KD of MS2 coat protein” value came out at 14.8 nM (input ligand: FMN 200 uM), 52.1 nM under setting [4] and 17.2 nM (input ligand: none).
